Test results from article PMC3434177, “Agnathan VIP, PACAP and Their Receptors: Ancestral Origins of Today's Highly Diversified Forms” (PLoS ONE, 2012).

How the values were obtained:
[1] = test system: hfVPACa; experiment: cAMP accumulation (LANCE cAMP assay) in COS-7 cells transiently transfected with hfVPACa; assay type: cell-based, inshore hagfish (Eptatretus burgeri); conditions: 100 nM peptide, 30 min, at least 4 experiments in duplicates
Procedure: To investigate the functional properties of the proteins encoded by the agnathan VPAC receptor cDNAs, various vertebrate secretin superfamily peptides at a 100 nM concentration were employed to determine their abilities to stimulate cAMP production in transiently transfected COS-7 cells with hfVPACa or hfVPACb. As jlpVPAC was indicated to be orthologous to hfVPACa by phylogenetic analysis, only the hfVPAC receptors were tested (Figure 4). […] The hfVPACa was further studied using graded concentrations of VIP/PACAP peptides from various vertebrates including sea lamprey (Figure 4C and 4D).
Figure 4 Functional characterization of hfVPACa and hfVPACb. Intracellular cAMP accumulation in response to 100 nM vertebrate superfamily peptides on COS-7 cells transiently transfected with (A) hfVPACa and (B) hfVPACb. Peptide species: slp, sea lamprey; gf, goldfish; h, human; o, ovine; zf, zebrafish; x, Xenopus; ct, catfish and cp, carp. Data represent the mean ± S.E.M. of at least 4 experiments performed in duplicates, p<0.01 is denoted by “*”. […] Data are expressed as the mean ± S.E.M. of at least 6 experiments performed in duplicates. […] Data are expressed as the mean ± S.E.M. of at least 4 experiments. RFU, relative fluorescence units. (G) Shown are representative of confocal fluorescence images of CHO-K1 cells expressing (i) hfVPACa-pEYFP, (ii) hfVPACb-pEYFP and (iii) pEYFP-N1.
African green monkey kidney (COS-7) and Chinese hamster ovary (CHO-K1) cells (ATCC, Manassas, VA) were cultured in 10% FBS/100 U/ml Penicillin/[…] Streptomycin supplemented DMEM and MEM respectively in a 5% (v/v) CO2 humidified chamber at 37°C and passaged twice per week using Trypsin-EDTA (TE) (Invitrogen) on Nunc^TM Surface (Nunc, Denmark) tissue culture flasks. […] For cAMP assays, COS-7 cells were stimulated for 30 mins with either fixed ([…]) or varying (10^−6 to 10^−12 M) concentrations before taking measurements using the LANCE cAMP assay kit (Perkin-Elmer, Waltham, MA) in the Victor x4 multilabel reader (Perkin-Elmer) according to the manufacturer's protocol. […]

[2] = target: inshore hagfish (Eptatretus burgeri) VPAC receptor a (inshore hagfish (Eptatretus burgeri))
[3] = target: inshore hagfish (Eptatretus burgeri) VPAC receptor b (inshore hagfish (Eptatretus burgeri))
[4] = target: inshore hagfish (Eptatretus burgeri) VPAC receptor a (inshore hagfish (Eptatretus burgeri)); remark: listed apart in the source

Row | Substance | ability to stimulate cAMP production at a fixed peptide concentration [1] | intracellular cAMP accumulation (LANCE cAMP assay) in COS-7 cells transiently expressing hfVPACa, graded peptide concentrations 10^-6 to 10^-12 M, EC50 [2] [nM] | also measured
1 | GLP-1 | weakly or unable to do so | – | –
2 | GLP-2 | weakly or unable to do so | – | –
3 | glucagon: Glucagon (goldfish), synthetic peptide (HSEGTFSNDYSKYLETRRAQDFVEWLMNS; Glucagon; UniProt P79695 50-78, looked up) | weakly or unable to do so | – | –
4 | human VIP (peptide) | – | 1.74 | –
5 | ovine PACAP-27 (peptide) | – | 0.895 | –
6 | sea lamprey PACAP-27 (peptide) | – | 5.92 | intracellular calcium elevation (Fluo-4 calcium assay) in CHO-K1 cells transiently expressing hfVPACb, graded peptide concentrations 10^-6 to 10^-12 M, EC50 [3]: 27.8 nM; intracellular calcium elevation (Fluo-4 calcium assay) in CHO-K1 cells transiently expressing hfVPACa, graded peptide concentrations 10^-6 to 10^-12 M, EC50 [4]: 1.39 nM
